Results taken from paper PMC314469, “Protein Interaction Networks by Proteome Peptide Scanning” (PLoS Biology, 2004).

T1: Myo5 SH3 (MYO5_YEAST), Q04439
T1 chain: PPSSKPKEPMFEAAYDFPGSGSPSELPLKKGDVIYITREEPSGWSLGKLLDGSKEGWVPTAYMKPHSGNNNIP

B1: YBR112C 140-153 (peptide)
chain: ALYHLSNPNVPKLW
B2: YOR181W 519-531 (peptide)
chain: APAPPPPPQMPAT
B3: YGL099W 6-19 (peptide)
chain: APKKWKAPKGPKPT
B4: YJL020C 199-212 (peptide)
chain: APKYYVPPGIPTND
B5: YMR055C 139-152 (peptide)
chain: APLLYSSPSEPMAY
B6: YJL020C 739-752 (peptide)
chain: APPALSAPSIPPVP
B7: YJL020C 718-731 (peptide)
chain: APPALSAPSVPPVP
B8: YDL019C 1187-1200 (peptide)
chain: APQPHLLPWLPPTD
B9: YDL070W 154-167 (peptide)
chain: DARPFLKPVDPIAL
B10: YLR399C 169-182 (peptide)
chain: DARPFLQPVDPVKL
B11: YBR123C 27-40 (peptide)
chain: DEFTLDLPRIPSLE
B12: YHR186C 271-284 (peptide)
chain: DELLLMSPELPADL
B13: YNL118C 54-67 (peptide)
chain: DFIKLMNPTLPSLK
B14: YPL242C 282-295 (peptide)
chain: DFNKFERPNIPVEE
B15: YPR039W 19-32 (peptide)
chain: DFPLYKSPAFPSSS
B16: YER172C 104-117 (peptide)
chain: DFRLHYYPKDPSNV
B17: YLR342W 92-105 (peptide)
chain: DFSSYGPPGTPGYD
B18: YER081W 252-265 (peptide)
chain: DFVTLHVPATPETE
B19: YPL020C 565-578 (peptide)
chain: DLIHLDSPQQPNGY
B20: YNL286W 144-157 (peptide)
chain: DLKEFNGPEPPIKR
B21: YHR108W 433-446 (peptide)
chain: DLLGLSTPQSPTNS
B22: YNL059C 225-238 (peptide)
chain: DLMALKYPYFPTKM
B23: YGR068C 274-287 (peptide)
chain: DLSVHTSPHGPIGS
B24: Q0115 378-391 (peptide)
chain: DLSYYLRPIKPFNT
B25: YIL109C 92-105 (peptide)
chain: DPNAYMQPQVPVQM
B26: YGR070W 171-184 (peptide)
chain: DPNQLSTPPTPKSA
B27: YOR307C 21-34 (peptide)
chain: DPSLYQIPEPPRGG
B28: YER036C 364-377 (peptide)
chain: EADGLVQPVVPDKV
B29: YHR036W 272-285 (peptide)
chain: EAFKLPKPWSPNSH
B30: YPL127C 99-112 (peptide)
chain: EAGDFEQPKGPAGA
B31: YDR432W 85-98 (peptide)
chain: EAHQHHQPPEPQPY
B32: YKR079C 211-224 (peptide)
chain: EAIKLGVPKGPLFA
B33: YER162C 705-718 (peptide)
chain: EARPYSEPSEPEDS
B34: YLR073C 184-197 (peptide)
chain: EAYRLNYPELPRLT
B35: YPL176C 44-57 (peptide)
chain: EEMGMEEPQAPEAF
B36: YNR028W 128-141 (peptide)
chain: EETEMLAPKLPEEN
B37: YHR109W 353-366 (peptide)
chain: EFDMLLLPFIPSID
B38: YGL003C 167-180 (peptide)
chain: EFSPHSTPVTPRRL
B39: YNL278W 118-131 (peptide)
chain: ELAEFTDPSSPVSE
B40: YBR221C 343-356 (peptide)
chain: ELEDFAFPDTPTIV
B41: YCR091W 173-186 (peptide)
chain: ELFTFDMPTDPSSF
B42: YML005W 159-172 (peptide)
chain: ELLSFLSPGKPSKG
B43: YLR131C 69-82 (peptide)
chain: ELRDLDIPLVPSPK
B44: YGR062C 88-101 (peptide)
chain: ELRKLVQPITPIIK
B45: YLR454W 1338-1351 (peptide)
chain: ELRTLFVPLIPSVT
B46: YGR154C 125-138 (peptide)
chain: ELYYLNDPKYPGTK
B47: YKR041W 168-181 (peptide)
chain: EPATLPLPGTPTLA
B48: YMR313C 491-504 (peptide)
chain: EPEPLMSPVPPSSA
B49: YEL031W 876-889 (peptide)
chain: EPIAHLFPPGPKNP
B50: YIL156W 498-511 (peptide)
chain: EPPSWKPPDLPIRL
B51: YLR308W 63-76 (peptide)
chain: EWPGLDPPYIPLDF
B52: YKR038C 231-244 (peptide)
chain: FARTLKIPNEPSPG
B53: YER141W 445-458 (peptide)
chain: FASQLRKPRAPMRN
B54: YJL033W 477-490 (peptide)
chain: FAYSLGLPGAPKIK
B55: YDR451C 287-300 (peptide)
chain: FEDHHITPSKPGGQ
B56: YDL117W 176-189 (peptide)
chain: FEESMNNPLPPLPP
B57: YPR184W 1320-1333 (peptide)
chain: FEKRYYVPEDPSQD
B58: YBL088C 1519-1532 (peptide)
chain: FEMVFRHPEQPHMI

Biological target: T1, Myo5 SH3 (MYO5_YEAST), Q04439
Test: SPOT array

Binder	normalised SPOT signal, Boehringer light units (BLU); mean over the file's lines of this peptide
B1	196
B2	7750
B3	1010
B4	10400
B5	83.1
B6	10800
B7	6580
B8	117
B9	126
B10	179
B11	181
B12	16
B13	152
B14	212
B15	173
B16	77.7
B17	108
B18	190
B19	220
B20	126

Binder	normalised SPOT signal, Boehringer light units (BLU); mean over the file's lines of this peptide
B21	91.9
B22	139
B23	186
B24	161
B25	160
B26	166
B27	98.8
B28	75.1
B29	141
B30	49.8
B31	0
B32	130
B33	208
B34	125
B35	128
B36	81.6
B37	249
B38	114
B39	189
B40	255

Binder	normalised SPOT signal, Boehringer light units (BLU); mean over the file's lines of this peptide
B41	44.9
B42	57.4
B43	75.3
B44	170
B45	294
B46	0
B47	61.8
B48	215
B49	356
B50	87000
B51	62.7
B52	146
B53	460
B54	75.8
B55	67.9
B56	169
B57	121
B58	310
